Source: patent US20150246959A1 (US Dept. of Health and Human Services, published 2015)

Experiments:
Test in all cases: cell-based or functional assay
[1] = molecular target: MAGE-A1/B4: 241-251 peptide presented by HLA-DP*0401 on 293-CIITA cells (human, UniProt P20036 29-260)
[2] = molecular target: MAGE-A3: 243-258 peptide presented by HLA-DP*0401 on 293-CIITA cells (human, UniProt P20036 29-260)
[3] = molecular target: MAGE-A2/A12: 248-258 peptide presented by HLA-DP*0401 on 293-CIITA cells (human, UniProt P20036 29-260)
[4] = molecular target: MAGE-L2: 582-597 peptide presented by HLA-DP*0401 on 293-CIITA cells (human, UniProt P20036 29-260)
[5] = molecular target: MAGE-A3: 247-258 peptide presented by HLA-DP*0401 on 293-CIITA cells (human, UniProt P20036 29-260)
[6] = molecular target: MAGE-B10: 250-260 peptide presented by HLA-DP*0401 on 293-CIITA cells (human, UniProt P20036 29-260)
[7] = molecular target: MAGE-D4: 300-315 peptide presented by HLA-DP*0401 on 293-CIITA cells (human, UniProt P20036 29-260)
[8] = molecular target: MAGE-D2: 413-428 peptide presented by HLA-DP*0401 on 293-CIITA cells (human, UniProt P20036 29-260)
[9] = molecular target: MAGE-A8: 251-261 peptide presented by HLA-DP*0401 on 293-CIITA cells (human, UniProt P20036 29-260)
[10] = molecular target: MAGE-A6: 248-258 peptide presented by HLA-DP*0401 on 293-CIITA cells (human, UniProt P20036 29-260)
[11] = molecular target: MAGE-A3: 243-256 peptide presented by HLA-DP*0401 on 293-CIITA cells (human, UniProt P20036 29-260)
[12] = molecular target: MAGE-A3: 246-258 peptide presented by HLA-DP*0401 on 293-CIITA cells (human, UniProt P20036 29-260)
[13] = molecular target: MAGE-A3: 248-258 peptide presented by HLA-DP*0401 on 293-CIITA cells (human, UniProt P20036 29-260)
[14] = molecular target: MAGE-A3: 243-255 peptide presented by HLA-DP*0401 on 293-CIITA cells (human, UniProt P20036 29-260)
[15] = molecular target: MAGE-C1: 113-123 peptide presented by HLA-DP*0401 on 293-CIITA cells (human, UniProt P20036 29-260)
[16] = molecular target: MAGE-A3: 243-254 peptide presented by HLA-DP*0401 on 293-CIITA cells (human, UniProt P20036 29-260)
[17] = molecular target: MAGE-A4/A9: 249-259 peptide presented by HLA-DP*0401 on 293-CIITA cells (human, UniProt P20036 29-260)
[18] = molecular target: MAGE-A3: 243-253 peptide presented by HLA-DP*0401 on 293-CIITA cells (human, UniProt P20036 29-260)
[19] = molecular target: Necdin: 237-247 peptide presented by HLA-DP*0401 on 293-CIITA cells (human, UniProt P20036 29-260)
[20] = molecular target: MAGE-B16: 252-262 peptide presented by HLA-DP*0401 on 293-CIITA cells (human, UniProt P20036 29-260)
[21] = molecular target: MAGE-B2: 250-260 peptide presented by HLA-DP*0401 on 293-CIITA cells (human, UniProt P20036 29-260)
[22] = molecular target: MAGE-G1: 220-235 peptide presented by HLA-DP*0401 on 293-CIITA cells (human, UniProt P20036 29-260)
[23] = molecular target: MAGE-A3: 249-258 peptide presented by HLA-DP*0401 on 293-CIITA cells (human, UniProt P20036 29-260)
[24] = molecular target: MAGE-A3: 245-258 peptide presented by HLA-DP*0401 on 293-CIITA cells (human, UniProt P20036 29-260)

B1: 6F9mC TCR (TCR)
TCR alpha: QTVTQSQPEMSVQEAETVTLSCTYDTSESDYYLFWYKQPPSRQMILVIRQEAYKQQNATENRFSVNFQKAAKSFSLKISDSQLGDAAMYFCALRSSGTYKYIFGTGTRLKVLANIQNPEPAVYQLKDPRSQDSTLCLFTDFDSQINVPKTMESGTFITDKTVLDMKAMDSKSNGAIAWSNQTSFTCQDIFKETNATYPSSDVPCDATLTEKSFETDMNLNFQNLSVMGLRILLLKVAGFNLLMTLRLWSS
TCR beta: GAGVSQSPSNKVTEKGKDVELRCDPISGHTALYWYRQSLGQGLEFLIYFQGNSAPDKSGLPSDRFSAERTGGSVSTLTIQRTQQEDSAVYLCASIRTGPFFSGNTIYFGEGSWLTVVEDLRNVTPPKVSLFEPSKAEIANKQKATLVCLARGFFPDHVELSWWVNGKEVHSGVSTDPQAYKESNYSYCLSSRLRVSATFWHNPRNHFRCQVQFHGLSEEDKWPEGSPKPVTQNISAEAWGRADCGITSASYHQGVLSATILYEILLGKATLYAVLVSGLVLMAMVKRKNS
IFN-g (pg/ml); CD4+ T cells of PBMC-1; 293-CIITA pulsed with peptide [1]: 126 pg/mL | IFN-g (pg/ml); CD4+ T cells of PBMC-2; 293-CIITA pulsed with peptide [1]: 84 pg/mL | IFN-g (pg/ml); CD4+ T cells of PBMC-1; 293-CIITA pulsed with peptide [2]: 15200 pg/mL | IFN-g (pg/ml); CD4+ T cells of PBMC-2; 293-CIITA pulsed with peptide [2]: 17500 pg/mL | IFN-g (pg/ml); CD4+ T cells of PBMC-1; 293-CIITA pulsed with peptide [3]: 66 pg/mL | IFN-g (pg/ml); CD4+ T cells of PBMC-2; 293-CIITA pulsed with peptide [3]: 56 pg/mL | IFN-g (pg/ml); CD4+ T cells of PBMC-1; 293-CIITA pulsed with peptide [4]: 56 pg/mL | IFN-g (pg/ml); CD4+ T cells of PBMC-2; 293-CIITA pulsed with peptide [4]: 107 pg/mL | IFN-g (pg/ml); CD4+ T cells of PBMC-1; 293-CIITA pulsed with peptide [5]: 10600 pg/mL | IFN-g (pg/ml); CD4+ T cells of PBMC-2; 293-CIITA pulsed with peptide [5]: 13300 pg/mL | IFN-g (pg/ml); CD4+ T cells of PBMC-1; 293-CIITA pulsed with peptide [6]: 18 pg/mL | IFN-g (pg/ml); CD4+ T cells of PBMC-2; 293-CIITA pulsed with peptide [6]: 34 pg/mL | IFN-g (pg/ml); CD4+ T cells of PBMC-1; 293-CIITA pulsed with peptide [7]: 234 pg/mL | IFN-g (pg/ml); CD4+ T cells of PBMC-2; 293-CIITA pulsed with peptide [7]: 268 pg/mL | IFN-g (pg/ml); CD4+ T cells of PBMC-1; 293-CIITA pulsed with peptide [8]: 43 pg/mL | IFN-g (pg/ml); CD4+ T cells of PBMC-2; 293-CIITA pulsed with peptide [8]: 223 pg/mL | IFN-g (pg/ml); CD4+ T cells of PBMC-1; 293-CIITA pulsed with peptide [9]: 58 pg/mL | IFN-g (pg/ml); CD4+ T cells of PBMC-2; 293-CIITA pulsed with peptide [9]: 41 pg/mL | IFN-g (pg/ml); CD4+ T cells of PBMC-1; 293-CIITA pulsed with peptide [10]: 11800 pg/mL | IFN-g (pg/ml); CD4+ T cells of PBMC-2; 293-CIITA pulsed with peptide [10]: 8370 pg/mL | IFN-g (pg/ml); CD4+ T cells of PBMC-1; 293-CIITA pulsed with peptide [11]: 1820 pg/mL | IFN-g (pg/ml); CD4+ T cells of PBMC-2; 293-CIITA pulsed with peptide [11]: 2490 pg/mL | IFN-g (pg/ml); CD4+ T cells of PBMC-1; 293-CIITA pulsed with peptide [12]: 12700 pg/mL | IFN-g (pg/ml); CD4+ T cells of PBMC-2; 293-CIITA pulsed with peptide [12]: 16200 pg/mL | IFN-g (pg/ml); CD4+ T cells of PBMC-1; 293-CIITA pulsed with peptide [13]: 9000 pg/mL | IFN-g (pg/ml); CD4+ T cells of PBMC-2; 293-CIITA pulsed with peptide [13]: 8700 pg/mL | IFN-g (pg/ml); CD4+ T cells of PBMC-1; 293-CIITA pulsed with peptide [14]: 137 pg/mL | IFN-g (pg/ml); CD4+ T cells of PBMC-2; 293-CIITA pulsed with peptide [14]: 117 pg/mL | IFN-g (pg/ml); CD4+ T cells of PBMC-1; 293-CIITA pulsed with peptide [15]: 0 pg/mL | IFN-g (pg/ml); CD4+ T cells of PBMC-2; 293-CIITA pulsed with peptide [15]: 27 pg/mL | IFN-g (pg/ml); CD4+ T cells of PBMC-1; 293-CIITA pulsed with peptide [16]: 0 pg/mL | IFN-g (pg/ml); CD4+ T cells of PBMC-2; 293-CIITA pulsed with peptide [16]: 39 pg/mL | IFN-g (pg/ml); CD4+ T cells of PBMC-1; 293-CIITA pulsed with peptide [17]: 23 pg/mL | IFN-g (pg/ml); CD4+ T cells of PBMC-2; 293-CIITA pulsed with peptide [17]: 26 pg/mL | IFN-g (pg/ml); CD4+ T cells of PBMC-1; 293-CIITA pulsed with peptide [18]: 40 pg/mL | IFN-g (pg/ml); CD4+ T cells of PBMC-2; 293-CIITA pulsed with peptide [18]: 45 pg/mL | IFN-g (pg/ml); CD4+ T cells of PBMC-1; 293-CIITA pulsed with peptide [19]: 22 pg/mL | IFN-g (pg/ml); CD4+ T cells of PBMC-2; 293-CIITA pulsed with peptide [19]: 32 pg/mL | IFN-g (pg/ml); CD4+ T cells of PBMC-1; 293-CIITA pulsed with peptide [20]: 27 pg/mL | IFN-g (pg/ml); CD4+ T cells of PBMC-2; 293-CIITA pulsed with peptide [20]: 28 pg/mL | IFN-g (pg/ml); CD4+ T cells of PBMC-1; 293-CIITA pulsed with peptide [21]: 0 pg/mL | IFN-g (pg/ml); CD4+ T cells of PBMC-2; 293-CIITA pulsed with peptide [21]: 20 pg/mL | IFN-g (pg/ml); CD4+ T cells of PBMC-1; 293-CIITA pulsed with peptide [22]: 29 pg/mL | IFN-g (pg/ml); CD4+ T cells of PBMC-2; 293-CIITA pulsed with peptide [22]: 33 pg/mL | IFN-g (pg/ml); CD4+ T cells of PBMC-1; 293-CIITA pulsed with peptide [23]: 1640 pg/mL | IFN-g (pg/ml); CD4+ T cells of PBMC-2; 293-CIITA pulsed with peptide [23]: 2030 pg/mL | IFN-g (pg/ml); CD4+ T cells of PBMC-1; 293-CIITA pulsed with peptide [24]: 15000 pg/mL | IFN-g (pg/ml); CD4+ T cells of PBMC-2; 293-CIITA pulsed with peptide [24]: 17800 pg/mL
